Columns and labels:
[1] = test system: HeLa Kyoto; assay: solubility change mitosis vs G1/S (difference of NP-40 vs SDS log2 ratios) (log2 ratio difference); higher = more soluble in mitosis
[2] = test system: HeLa Kyoto; assay: solubility in G1/S (NP-40 vs SDS abundance) (log2 ratio); higher = more soluble; details: cell cycle stage: G1/S
[3] = test system: HeLa Kyoto; assay: melting temperature (median over replicates), in situ; higher = more thermally stable
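For melting temperature (median over replicates), in situ in this document: HeLa Kyoto cells synchronized by double thymidine or nocodazole block, proteins quantified by TMT10plex mass spectrometry, three independent biological replicates.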
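For solubility change mitosis vs G1/S (difference of NP-40 vs SDS log2 ratios) in this document: synchronized HeLa Kyoto cells (double thymidine block for G1/S, nocodazole release for mitosis), protein amounts in NP-40 versus SDS lysates quantified by mass spectrometry, three biological replicates.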
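For solubility in G1/S (NP-40 vs SDS abundance) in this document: HeLa Kyoto cells arrested at G1/S by double thymidine block, proteins quantified by TMT10plex mass spectrometry in mild NP-40 versus SDS extracts, three biological replicates.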

Sequence	solubility change mitosis (log2) [1]	solubility in G1/S (log2) [2]	melting temperature ([3]; cell cycle stage: G1/S)	melting temperature ([3]; cell cycle stage: mitosis)
MATGDLKRSLRNLEQVLRLLNYPEEVDCVGLIKGDPAASLPIISYSFTSYSPYVTELIMESNVELIAKNDLRFIDAVYKLLRDQFNYKPILTKKQFIQCGFAEWKIQIVCDILNCVMKKHKELSSLQKIPSQQRKKISSGKSEPPLGNEKISAEAVGVDISGRFMTSGKKKAVVIRHLYNEDNVDISEDTLSPITDVNEAVDVSDLNATEIKMPEVKVPEIKAEQQDVNVNPEITALQTMLAECQENLKKLTSIEKRLDCLEQKMKGKVMVDENTWTNLLSRVTLLETEMLLSKKNDEFIEFNEVSEDYASCSDMDLLNPHRKSEVERPASIPLSSGYSTASSDSTPRASTVNYCGLNEISEETTIQKMERMKKMFEETAELLKCPNHYL [CEP44]	-0.26	0.259	48.6 °C	49.3 °C
MATKDPTAVERANLLNMAKLSIKGLIESALSFGRTLDSDYPPLQQFFVVMEHCLKHGLKVRKSFLSYNKTIWGPLELVEKLYPEAEEIGASVRDLPGLKTPLGRARAWLRLALMQKKMADYLRCLIIQRDLLSEFYEYHALMMEEEGAVIVGLLVGLNVIDANLCVKGEDLDSQVGVIDFSMYLKNEEDIGNKERNVQIAAILDQKNYVEELNRQLNSTVSSLHSRVDSLEKSNTKLIEELAIAKNNIIKLQEENHQLRSENKLILMKTQQHLEVTKVDVETELQTYKHSRQGLDEMYNEARRQLRDESQLRQDVENELAVQVSMKHEIELAMKLLEKDIHEKQDTLIGLRQQLEEVKAINIEMYQKLQGSEDGLKEKNEIIARLEEKTNKITAAMRQLEQRLQQAEKAQMEAEDEDEKYLQECLSKSDSLQKQISQKEKQLVQLETDLKIEKEWRQTLQEDLQKEKDALSHLRNETQQIISLKKEFLNLQDENQQLKKIYHEQEQALQELGNKLSESKLKIEDIKEANKALQGLVWLKDKEATHCKLCEKEFSLSKRKHHCRNCGEIFCNACSDNELPLPSSPKPVRVCDSCHALLIQRCSSNLP [RUFY2]	-0.122	-0.00835	49.1 °C	49.3 °C
MATLSFVFLLLGAVSWPPASASGQEFWPGQSAADILSGAASRRRYLLYDVNPPEGFNLRRDVYIRIASLLKTLLKTEEWVLVLPPWGRLYHWQSPDIHQVRIPWSEFFDLPSLNKNIPVIEYEQFIAESGGPFIDQVYVLQSYAEGWKEGTWEEKVDERPCIDQLLYSQDKHEYYRGWFWGYEETRGLNVSCLSVQGSASIVAPLLLRNTSARSVMLDRAENLLHDHYGGKEYWDTRRSMVFARHLREVGDEFRSRHLNSTDDADRIPFQEDWMKMKVKLGSALGGPYLGVHLRRKDFIWGHRQDVPSLEGAVRKIRSLMKTHRLDKVFVATDAVRKEYEELKKLLPEMVRFEPTWEELELYKDGGVAIIDQWICAHARFFIGTSVSTFSFRIHEEREILGLDPKTTYNRFCGDQEKACEQPTHWKITY [POFUT2]	-0.151	0.154	–	53.8 °C
MDPGKDKEGVPQPSGPPARKKFVIPLDEDEVPPGVAKPLFRSTQSLPTVDTSAQAAPQTYAEYAISQPLEGAGATCPTGSEPLAGETPNQALKPGAKSNSIIVSPRQRGNPVLKFVRNVPWEFGDVIPDYVLGQSTCALFLSLRYHNLHPDYIHGRLQSLGKNFALRVLLVQVDVKDPQQALKELAKMCILADCTLILAWSPEEAGRYLETYKAYEQKPADLLMEKLEQDFVSRVTECLTTVKSVNKTDSQTLLTTFGSLEQLIAASREDLALCPGLGPQKARRLFDVLHEPFLKVP [ERCC1]	0.0087	0.296	–	51 °C
MDTSSVGGLELTDQTPVLLGSTAMATSLTNVGNSFSGPANPLVSRSNKFQNSSVEDDDDVVFIEPVQPPPPSVPVVADQRTITFTSSKNEELQGNDSKITPSSKELASQKGSVSETIVIDDEEDMETNQGQEKNSSNFIERRPPETKNRTNDVDFSTSSFSRSKVNAGMGNSGITTEPDSEIQIANVTTLETGVSSVNDGQLENTDGRDMNLMITHVTSLQNTNLGDVSNGLQSSNFGVNIQTYTPSLTSQTKTGVGPFNPGRMNVAGDVFQNGESATHHNPDSWISQSASFPRNQKQPGVDSLSPVASLPKQIFQPSVQQQPTKPVKVTCANCKKPLQKGQTAYQRKGSAHLFCSTTCLSSFSHKPAPKKLCVMCKKDITTMKGTIVAQVDSSESFQEFCSTSCLSLYEDKQNPTKGALNKSRCTICGKLTEIRHEVSFKNMTHKLCSDHCFNRYRMANGLIMNCCEQCGEYLPSKGAGNNVLVIDGQQKRFCCQSCVSEYKQVGSHPSFLKEVRDHMQDSFLMQPEKYGKLTTCTGCRTQCRFFDMTQCIGPNGYMEPYCSTACMNSHKTKYAKSQSLGIICHFCKRNSLPQYQATMPDGKLYNFCNSSCVAKFQALSMQSSPNGQFVAPSDIQLKCNYCKNSFCSKPEILEWENKVHQFCSKTCSDDYKKLHCIVTYCEYCQEEKTLHETVNFSGVKRPFCSEGCKLLYKQDFARRLGLRCVTCNYCSQLCKKGATKELDGVVRDFCSEDCCKKFQDWYYKAARCDCCKSQGTLKERVQWRGEMKHFCDQHCLLRFYCQQNEPNMTTQKGPENLHYDQGCQTSRTKMTGSAPPPSPTPNKEMKNKAVLCKPLTMTKATYCKPHMQTKSCQTDDTWRTEYVPVPIPVPVYIPVPMHMYSQNIPVPTTVPVPVPVPVFLPAPLDSSEKIPAAIEELKSKVSSDALDTELLTMTDMMSEDEGKTETTNINSVIIETDIIGSDLLKNSDPETQSSMPDVPYEPDLDIEIDFPRAAEELDMENEFLLPPVFGEEYEEQPRPRSKKKGAKRKAVSGYQSHDDSSDNSECSFPFKYTYGVNAWKHWVKTRQLDEDLLVLDELKSSKSVKLKEDLLSHTTAELNYGLAHFVNEIRRPNGENYAPDSIYYLCLGIQEYLCGSNRKDNIFIDPGYQTFEQELNKILRSWQPSILPDGSIFSRVEEDYLWRIKQLGSHSPVALLNTLFYFNTKYFGLKTVEQHLRLSFGTVFRHWKKNPLTMENKACLRYQVSSLCGTDNEDKITTGKRKHEDDEPVFEQIENTANPSRCPVKMFECYLSKSPQNLNQRMDVFYLQPECSSSTDSPVWYTSTSLDRNTLENMLVRVLLVKDIYDKDNYELDEDTD [ZMYM2]	0.00298	-0.229	49.3 °C	49.7 °C
MDVSGQETDWRSTAFRQKLVSQIEDAMRKAGVAHSKSSKDMESHVFLKAKTRDEYLSLVARLIIHFRDIHNKKSQASVSDPMNALQSLTGGPAAGAAGIGMPPRGPGQSLGGMGSLGAMGQPMSLSGQPPPGTSGMAPHSMAVVSTATPQTQLQLQQVALQQQQQQQQFQQQQQAALQQQQQQQQQQQFQAQQSAMQQQFQAVVQQQQQLQQQQQQQQHLIKLHHQNQQQIQQQQQQLQRIAQLQLQQQQQQQQQQQQQQQQALQAQPPIQQPPMQQPQPPPSQALPQQLQQMHHTQHHQPPPQPQQPPVAQNQPSQLPPQSQTQPLVSQAQALPGQMLYTQPPLKFVRAPMVVQQPPVQPQVQQQQTAVQTAQAAQMVAPGVQMITEALAQGGMHIRARFPPTTAVSAIPSSSIPLGRQPMAQVSQSSLPMLSSPSPGQQVQTPQSMPPPPQPSPQPGQPSSQPNSNVSSGPAPSPSSFLPSPSPQPSQSPVTARTPQNFSVPSPGPLNTPVNPSSVMSPAGSSQAEEQQYLDKLKQLSKYIEPLRRMINKIDKNEDRKKDLSKMKSLLDILTDPSKRCPLKTLQKCEIALEKLKNDMAVPTPPPPPVPPTKQQYLCQPLLDAVLANIRSPVFNHSLYRTFVPAMTAIHGPPITAPVVCTRKRRLEDDERQSIPSVLQGEVARLDPKFLVNLDPSHCSNNGTVHLICKLDDKDLPSVPPLELSVPADYPAQSPLWIDRQWQYDANPFLQSVHRCMTSRLLQLPDKHSVTALLNTWAQSVHQACLSAA [MED15]	0.147	0.144	–	51.3 °C
MEAAVGVPDGGDQGGAGPREDATPMDAYLRKLGLYRKLVAKDGSCLFRAVAEQVLHSQSRHVEVRMACIHYLRENREKFEAFIEGSFEEYLKRLENPQEWVGQVEISALSLMYRKDFIIYREPNVSPSQVTENNFPEKVLLCFSNGNHYDIVYPIKYKESSAMCQSLLYELLYEKVFKTDVSKIVMELDTLEVADEDNSEISDSEDDSCKSKTAAAAADVNGFKPLSGNEQLKNNGNSTSLPLSRKVLKSLNPAVYRNVEYEIWLKSKQAQQKRDYSIAAGLQYEVGDKCQVRLDHNGKFLNADVQGIHSENGPVLVEELGKKHTSKNLKAPPPESWNTVSGKKMKKPSTSGQNFHSDVDYRGPKNPSKPIKAPSALPPRLQHPSGVRQHAFSSHSSGSQSQKFSSEHKNLSRTPSQIIRKPDRERVEDFDHTSRESNYFGLSPEERREKQAIEESRLLYEIQNRDEQAFPALSSSSVNQSASQSSNPCVQRKSSHVGDRKGSRRRMDTEERKDKDSIHGHSQLDKRPEPSTLENITDDKYATVSSPSKSKKLECPSPAEQKPAEHVSLSNPAPLLVSPEVHLTPAVPSLPATVPAWPSEPTTFGPTGVPAPIPVLSVTQTLTTGPDSAVSQAHLTPSPVPVSIQAVNQPLMPLPQTLSLYQDPLYPGFPCNEKGDRAIVPPYSLCQTGEDLPKDKNILRFFFNLGVKAYSCPMWAPHSYLYPLHQAYLAACRMYPKVPVPVYPHNPWFQEAPAAQNESDCTCTDAHFPMQTEASVNGQMPQPEIGPPTFSSPLVIPPSQVSESHGQLSYQADLESETPGQLLHADYEESLSGKNMFPQPSFGPNPFLGPVPIAPPFFPHVWYGYPFQGFIENPVMRQNIVLPSDEKGELDLSLENLDLSKDCGSVSTVDEFPEARGEHVHSLPEASVSSKPDEGRTEQSSQTRKADTALASIPPVAEGKAHPPTQILNRERETVPVELEPKRTIQSLKEKTEKVKDPKTAADVVSPGANSVDSRVQRPKEESSEDENEVSNILRSGRSKQFYNQTYGSRKYKSDWGYSGRGGYQHVRSEESWKGQPSRSRDEGYQYHRNVRGRPFRGDRRRSGMGDGHRGQHT [OTUD4]	0.0663	-0.0234	–	51.1 °C
MEAEETMECLQEFPEHHKMILDRLNEQREQDRFTDITLIVDGHHFKAHKAVLAACSKFFYKFFQEFTQEPLVEIEGVSKMAFRHLIEFTYTAKLMIQGEEEANDVWKAAEFLQMLEAIKALEVRNKENSAPLEENTTGKNEAKKRKIAETSNVITESLPSAESEPVEIEVEIAEGTIEVEDEGIETLEEVASAKQSVKYIQSTGSSDDSALALLADITSKYRQGDRKGQIKEDGCPSDPTSKQVEGIEIVELQLSHVKDLFHCEKCNRSFKLFYHFKEHMKSHSTESFKCEICNKRYLRESAWKQHLNCYHLEEGGVSKKQRTGKKIHVCQYCEKQFDHFGHFKEHLRKHTGEKPFECPNCHERFARNSTLKCHLTACQTGVGAKKGRKKLYECQVCNSVFNSWDQFKDHLVIHTGDKPNHCTLCDLWFMQGNELRRHLSDAHNISERLVTEEVLSVETRVQTEPVTSMTIIEQVGKVHVLPLLQVQVDSAQVTVEQVHPDLLQDSQVHDSHMSELPEQVQVSYLEVGRIQTEEGTEVHVEELHVERVNQMPVEVQTELLEADLDHVTPEIMNQEERESSQADAAEAAREDHEDAEDLETKPTVDSEAEKAENEDRTALPVLE [ZNF131]	-0.0242	-0.231	46.6 °C	–
MEAVATATAAKEPDKGCIEPGPGHWGELSRTPVPSKPQDKVEAAEATPVALDSDTSGAENAAVSAMLHAVAASRLPVCSQQQGEPDLTEHEKVAILAQLYHEKPLVFLERFRTGLREEHLACFGHVRGDHRADFYCAEVARQGTARPRTLRTRLRNRRYAALRELIQGGEYFSDEQMRFRAPLLYEQYIGQYLTQEELSARTPTHQPPKPGSPGRPACPLSNLLLQSYEERELQQRLLQQQEEEEACLEEEEEEEDSDEEDQRSGKDSEAWVPDSEERLILREEFTSRMHQRFLDGKDGDFDYSTVDDNPDFDNLDIVARDEEERYFDEEEPEDAPSPELDGD [CCDC97]	0.36	0.105	49.6 °C	50.8 °C

Reference: the supplement of paper PMC5998384
